Kd, koff and kon data for 6 molecules are collected here from article PMC13181761, “New Analogs of the Compstatin Family of Clinical Complement Inhibitors with Low Picomolar Target Affinity” (Journal of Medicinal Chemistry, 2026).

A word on the Kd: it is the constant that tells how readily two partners part at equilibrium. High values mean lower affinity, low ones higher affinity. As a reminder, the koff is the first-order rate constant of dissociation. Lower therefore signals a long-lived complex. As usually defined, the kon is the second-order rate constant of association. Low readings indicate slower complex formation, high ones faster complex formation.

The target in assay [1] is T1, human C3b (human, UniProt P01024 749-1663).
T1 construct: Complement C3 beta chain, human; cut product of the C3 precursor; C3b alpha chain (C3 alpha chain after release of C3a), human; Two-chain fragment of C3; amine-coupled to the chip in SPR, free in the cryo-EM sample; also called hC3b; plasma-purified C3b; source: bought: Complement Technology (plasma-purified)
Nature of the assay: SPR; Biacore T200; human C3b amine-coupled; multicycle kinetics, serial 2-fold dilutions of peptide, 120 s injection, 180 s dissociation, regeneration 1 M NaCl; 25 °C, HBST pH 7.4; Langmuir 1:1 fit, KD = kd/ka; mean of 3 experiments. To be noted: both partners purified. In general terms: SPR reads the build-up and loss of mass on a sensor chip optically.

Assay [2] has as its target T1, human C3b. Nature of the assay: SPR; Biacore T200; human C3b amine-coupled; single-cycle kinetics, 5 increasing concentrations (0.5-40 nM), final dissociation 100-240 min; 25 °C, HBST pH 7.4; global Langmuir 1:1 fit; mean of 3 experiments. To be noted: both partners purified.

Bridges are numbered along the chain shown (N, C = ends). Where no end group is shown, it is not given here. [ ]: non-standard residue; d: D form. Trp(1-Me) = Cn1cc(C[C@H](N)C(=O)O)c2ccccc21; Nva(3-Et) = CCC(CC)[C@H](N)C(=O)O; Asu = N[C@@H](CCCCCC(=O)O)C(=O)O; NMeI = CC[C@H](C)[C@H](NC)C(=O)O; Sar = CNCC(=O)O Some results are limits rather than exact numbers.

B1: Cp01 Asp6Asu analog (peptide)
chain: Ac-ICVWQ[Asu]WGAHRCT
modifications: disulfide 2-12 (inferred)
In the case of B1, in assay [1], the dissociation constant (Kd) came out at 2.08 µM, the off-rate constant (koff) worked out at 0.23 s⁻¹ and the kon worked out at 120000 M⁻¹ s⁻¹.

B2: Cp40 Dea3 analog (peptide)
chain: [dY]IC[Nva(3-Et)][Trp(1-Me)]QDW[Sar]AHRC[NMeI]
modifications: disulfide 3-13 (inferred)
For the molecule B2, in assay [2], binding was put at a Kd of 0.0136 µM, the koff was found to be 0.006 s⁻¹ and the kon is 430000 M⁻¹ s⁻¹.

B3: Cp01 W7Bta analog (peptide)
chain: ICVWQDXGAHRCT
modifications: (3-benzothienyl)alanine (Bta) at position 7; acetyl at position 0; cyclic (cyclized by H2O2)
In the case of B3, the Kd in assay [1] was greater than 16 µM.

B4: Cp01 Val3Nva analog (peptide)
chain: ICXWQDWGAHRCT
modifications: not fully specified; norvaline (Nva) at position 3; acetyl at position 0; cyclic (cyclized by H2O2)
For the molecule B4, in assay [1], the affinity, expressed as Kd, was 1.66 µM.

B5: Cp01 Val3Tbg analog (peptide)
chain: ICXWQDWGAHRCT
modifications: α-tert-butyl-glycine (Tbg) at position 3; acetyl at position 0; cyclic (cyclized by H2O2)
The molecule B5 had a dissociation constant Kd in assay [1] of 0.103 µM.

B6: Cp01 Gly8D-Ala analog (peptide)
chain: Ac-ICVWQDW[dA]AHRCT
modifications: disulfide 2-12 (inferred)
In assay [1], B6 registered a dissociation constant Kd greater than 16 µM.
